This data set is described as follows: soluble on expression in E. coli; label from the status in PepcDB or PDB records.
As for “MDNIKIIVASDSIGETAELVARAGVSQFNPKQCKHEFLRYPYIESFENVDEVIQVAKDTNAIIVYTLIKPEIKKYMISKVNEHALKSVDIMGPLMELLSNSIEETPYYEPGMVHRLDDAYFKKIDAIEFAVKYDDGKDPKGLPKADIVLLGISRTSKTPLSQYLAHKSYKVMNIPIVPEVTPPDGLFNVDPSKCIALKISEEKLNRIRKERLKQLGLGDKARYATEARIQEELDYFEKLVDKIGCPVIDVSDKAIEETANDIIHFIEQNKSKLEHHHHHH”, the “soluble on expression in E. coli” value is “soluble”. Consider “MCGRFVLFTTDESLLGHPALRIFHSIHAPKGMPPARYNIAPTTIIPILRVGTTPTEAVIEPARWGLIPAWKREVTLPPLFNARAETVTTKPSFRQAFSTQRCAIPMDGYYEWHNKKPYWITTGAPTWVAGLWDSGAGMLSATMITTDSVAPLDWLHHRMPRFLNNDELAVWLRGSADEASGLLTPGDASAFHTSLADPSVGNIRNDYPELIDAPTDLFSL”, for which the “soluble on expression in E. coli” value is “not soluble”.

Regarding “AIASRAASLRAELTSLANAFEEERISSAERLDADLVRQAVEQAKPENLEQWKQVVHDATAKLQQFWEDSEQALIRETYALATSYLRESDDEVHRLQMTKKALEEQLETERRRSTRIEEQLAALQSRLLDSAAPAATTPADDARTQQEVLRSELQGFMQELVRNQRESLRVLQEELQRVREEASVREENLLRQIAHLKTELAVARTDNEVSSRQLRQLETSAGREEVQDELGPGTIWPPHLTPRRGHRRFQRHNRLEDAPAPPEF”, the “soluble on expression in E. coli” value is “soluble”. The result for “MGSDKIHHHHHHMKKIRLGIYIEDSEYGDRLTCYFMNHYKVQLEIHMYTMKEQLEHLEGEIDIMLSSELDQWNNKYIPLIQIVEETPIESEEGIYFVEKYQEVNRIVEEILKHVGGEVRDLKSEGSLIGQTRLISVYSLADNQYQMPFAMTLSSILSENEKVLLMDFQENSGLSRMLEQSVEHNLDELLVMAESGRYSTNRINSCIGRKHKLDYVYPIENTECLCEINTVICNNLLQMLGKEMHYDCIVLNMGTRFKGFFDILDRCSDIYLVQKKGGISQWREYEFTEELMERGLSNVVERIKLIEPPVITTPVSTCDKLVELWKWNEFGDVIRNMTRGISCAG” reads “not soluble”.

In the case of “MSLARPDELMFAPLGGVGEIGMNLSIYGLGNRHQRSWLAVDLGVSFGDEEHLPGIDLIMPDVRFLEKERKNLVGLVLTHAHEDHFGAIIELWPRLKCPIYATKFSAALFEAKCAAERNPPDIPVTVVPSGDRIDLGPFGVEFVPVAHSIPESHALAIHTAAGIVVHTGDWKIDPTPIVGPPTDERRLRELGDEGVLALIGDSTNAVRDGRSPSETEVAKTIAELVKAARGRVAVTTFASNVGRLRAVADAARAAGREVVVVGRAMERVVQVARETGHLDGMQELRSADVYGHLPSDKVLALCTGSQGEPRAALARIAKDDHPQVTLNRGDTVIFSSRTIPGNERAVGAIINGLVTQGIKVITDRTELVHVSGHPRRDELRDMIAWVRPQLLIPVHGEALHLSEHAQLARAAGVPKVLICKNGDLVRLGPEGHHHHHH”, the “soluble on expression in E. coli” value was “soluble”.

Regarding “MIQFSINRTLFIHALNTTKRAISTKNAIPILSSIKIEVTSTGVTLTGSNGQISIENTIPVSNENAGLLITSPGAILLEASFFINIISSLPDISINVKEIEQHQVVLTSGKSEITLKGKDVDQYPRLQEVSTENPLILKTKLLKSIIAETAFAASLQESRPILTGVHIVLSNHKDFKAVATDSHRMSQRLITLDNTSADFMVVLPSKSLREFSAVFTDDIETVEVFFSPSQILFRSEHISFYTRLLEGNYPDTDRLLMTEFETEVVFNTQSLRHAMERAFLISNATQNGTVKLEITQNHISAHVNSPEVGKVNEDLDIVSQSGSDLTISFNPTYLIESLKAIKSETVKIHFLSPVRPFTLTPGDEEESFIQLITPVRTN”, the “soluble on expression in E. coli” value was “soluble”. For the sequence “MSIAIIIGTHGAAAEQLLKTAEMILGEQSNVAYIDFVPGENAETLIEKYNDRLTGLDTSKGVLFLVDTWGGSPFNAASRIAIDKENYEVVTGVNIPMLAETFMARDDEPSFAELVAVAVETGREGVKALKAPDVKSDKPETQPAAPVPTAKAPAVALGPNDHMKIGLARIDDRLIHGQVATRWTKETNVNRIIVVSDEVAADKMRKTLLTQVAPPGVTAHVVDVEKAIRVYNNPKYANDRVMLLFTNPTDVVRLVEGGVDIKSVNIGGMAFRQGKTQVNNAVSIDEKDIEAFNKLNARGIELEVRKVSSDSRLKMMDLISKLNK”, the “soluble on expression in E. coli” value was “not soluble”.

As to “ELHAELVKRQHLETFLKTQIESELVDVYFQPIIETRTGNVVKFEALARFYHENSEYSTQEMISIIEDLELIAALDDVVCQTALKQWSHLQKIYGENIGLSINRSLNTKLDSLQVLQRSLDLIKASDVNPKLVTIELTETAYFEQDEEHAFALEQIRQEGIQIAIDDFGTGYSSFSYLEEGQFDVLKIDRKFVKNIHEGSTSYNIVKTITDLAHKLNVEVVAEGVESQRELEVLAGIGVDYMQGFLFSQA”, the “soluble on expression in E. coli” value is listed as “not soluble”. The result for “MAATSGTDEPVSGELVSVAHALSLPAESYGNDPDIEMAWAMRAMQHAEVYYKLISSVDPQFLKLTKVDDQIYSEFRKNFETLRIDVLDPEELKSESAKEKWRPFCLKFNGIVEDFNYGTLLRLDCSQGYTEENTIFAPRIQFFAIEIARNREGYNKAVYISVQDKEGEKGVNNGGEKRADSGEEENTKNGGEKGADSGEEKEEGINREDKTDKGGEKGKEADKEINKSGEKAM” reads “soluble”; that for “MFSQNPYESHVDVAVSAASANLRNMTNEQLISLLDDDALLESIIVNLPQVRSMPTDKESALAANKSLAEWNLAQKPRIDAAKTQTVDLYDQVKKLQGEVAVLKSQLDSVSSSKSLDTTSSLMQVAAQEADDDAEALFTQFENGEISVEIFLKQFKDKKTIAHLRKIKSDRLAALLREQTYSSYAQPTVPPPMPHAQPGYPTGNHMPGIGNIQFGSGYSGYPNISQPSAGRHPFF”, “not soluble”. Consider “MGSDKIHHHHHHMDDIPALMRSLQLKRKPLMVCSGGTTSRCAAEGHWTLDLRQSCRQIHFDPSTQHVEIGAGQTMESLLRELAKHGRSFPTGLSGLPGLGYILNGGISPLSRSQGLAIDQILEIKGVWGDGESFVLSKPEAACCSEDQLAWRGLCGAAPFLAVITDLKLQTHLLQPLRIWQSNLTFEQLLELIHQAESWPDSLSLQWIWGDEVHAYGVLLSADAAAVATFNQLQKTTLCTNVVEIDDVAGIHELPPFALPVVSNAAIGRCHSEVVALLGPAWGSGCQGVITALAELMAERPDPRCSLAVQQLGGVASRQRKDVSSLIHREAIWKPWITAAWPAGDSHIRALSLNWLEKVWATLEPYCAGVHLAQMHPHLPWHQRELKAAFGEWLPGLQELKARHDPNGILPSL”, for which the “soluble on expression in E. coli” value is recorded as “not soluble”. With “MLLLTRSPTAWHRLSQLKPPVLPGTLGGQALHLRSWLLSRQGPAETGGQGQPQGPGLRTRLLITGLFGAGLGGAWLALRAEKERLQQQKRTEALRQAAVGQGDFHLLDHRGRARCKADFRGQWVLMYFGFTHCPDICPDELEKLVQVVRQLEAEPGLPPVQPVFITVDPERDDVEAMARYVQDFHPRLLGLTGSTKQVAQASHSYRVYYNAGPKDEDQDYIVDHSIAIYLLNPDGLFTDYYGRSRSAEQISDSVRRHMAAFRSVLS”, the “soluble on expression in E. coli” value is listed as “not soluble”.

Take “MQPDVSFAPDVSFVIASYNAEATLDRAIASAIAQKGVSVEIIVVDDQSRDATLDVARAYPGDIVRVVALAKNRGPGGARNAGLDVARGRWIAVLDSDDAVFPGRLAAMISRAEKADAQIAVDNLQVIREDGVVEDAMFPRQYLEGLREISLATYIAGNVVFESKFNLGYLKPIFQRRFLDENRLRYDEQLRIGEDYILFAEALAKGGRCVVEPAIGYAYHIRSGSISRVLELHHVEAMRKADAVFAQTHRMDEAAQVAFARRGRSLRKAASFLAMVQHIKARSPLKAIRTALSDPAAVRHMGMPIAVRLRRVAAQFAVGAGRLEHHHHHH”: the “soluble on expression in E. coli” value is recorded as “soluble”. Regarding “SNALNLPYDEHADAWTQVKKALAAGKRTHKPTLLVFGANWCTDCRALDKSLRNQKNTALIAKHFEVVKIDVGNFDRNLELSQAYGDPIQDGIPAVVVVNSDGKVRYTTKGGELANARKMSDQGIYDFFAKITE”, the “soluble on expression in E. coli” value is reported as “soluble”. For the sequence “MSLTYPYRTTMALNTYQYRETTMIDPKKIEQIARQVHESMPKGIREFGEDVEKKIRQTLQAQLTRLDLVSREEFDVQTQVLLRTREKLALLEQRISELENRSTEIKKQPDPETLPPTLEGGSHHHHHH”, the “soluble on expression in E. coli” value is “soluble”.

The values above are taken from the DeepSol protein solubility set.
